The values below come from US20180022781A1 (INSERM INSTITUT NATIONAL DE LA SANTE ET DE LA RECHERCHE …, published 2018).

Positions count from the first letter of the chain named.

Data set [1] addresses S. pombe AC40 (AC40sp) (Schizosaccharomyces pombe) (UniProt O94616). Kind of data set: cell-based or functional assay.
Data set [2] has as its target T1, full-length Ty1 IN (IN1-635) fused to Gal4 activating domain (Saccharomyces cerevisiae, UniProt P0C2I7 583-1217).
T1 construct: the residue numbers of the constructs agree with it
T1 sequence: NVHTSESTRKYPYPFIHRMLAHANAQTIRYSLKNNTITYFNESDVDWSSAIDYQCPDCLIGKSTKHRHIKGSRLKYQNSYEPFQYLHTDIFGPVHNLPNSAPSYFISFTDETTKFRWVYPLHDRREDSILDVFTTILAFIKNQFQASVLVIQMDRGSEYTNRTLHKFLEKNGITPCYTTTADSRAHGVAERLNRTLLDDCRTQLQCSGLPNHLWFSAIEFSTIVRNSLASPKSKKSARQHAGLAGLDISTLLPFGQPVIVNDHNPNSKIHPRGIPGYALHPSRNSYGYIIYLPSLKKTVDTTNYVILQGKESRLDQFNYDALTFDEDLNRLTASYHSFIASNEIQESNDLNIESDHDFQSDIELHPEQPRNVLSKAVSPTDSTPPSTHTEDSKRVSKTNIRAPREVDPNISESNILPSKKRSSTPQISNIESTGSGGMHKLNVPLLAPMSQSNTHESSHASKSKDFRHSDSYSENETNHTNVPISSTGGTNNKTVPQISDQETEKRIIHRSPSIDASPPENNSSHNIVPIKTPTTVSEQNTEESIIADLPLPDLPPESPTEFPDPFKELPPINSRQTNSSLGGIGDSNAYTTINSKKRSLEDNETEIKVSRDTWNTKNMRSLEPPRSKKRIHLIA
Kind of data set: yeast two-hybrid. The text has this: (A) Two-hybrid interaction between different domains of Ty1-IN and AC40 or AC40sp. Left, Ty1 structure. Two open reading frames, GAG and POL (historically TYA and TYB), are flanked by two LTRs (black triangles). Protease (PR), integrase (IN), reverse transcriptase-RNAse H (RT/RH). The left-right arrow indicates Ty1 sequences recovered in the two-hybrid screen (2-HS) with AC40 as bait (coordinates 2706-4342 in Ty1). Ty1-IN regions fused to Gal4 activating domain (GAD) are depicted. Right, serial 10-fold dilutions of liquid cultures of cells expressing AC40 or AC40sp fused to Gal4 binding domain (GBD) and the various GAD-IN proteins were plated onto non-selective (Control) or selective (Interaction) media to detect interactions. (B) Co-immunoprecipitation of AC40 and IN-Strep. A 6×HA epitope was inserted at the end of the endogenous RPC40 gene (AC40-HA) and IN was fused with streptavidine (IN-Strep) and expressed from a galactose inducible promoter. Immunoprecipitation of protein extracts was performed with anti-HA magnetic beads coupled to IgG. […] (C) Co-immunoprecipitation of AC40 and IN expressed from a galactose inducible functional Ty1 element. Immunoprecipitation conditions are as in FIG. 3B.

Data set [3] deals with AC40 subunit of RNA polymerase III, P07703.
Sequence of AC40 subunit of RNA polymerase III, P07703 (P07703 whole entry, looked up, tested part not stated): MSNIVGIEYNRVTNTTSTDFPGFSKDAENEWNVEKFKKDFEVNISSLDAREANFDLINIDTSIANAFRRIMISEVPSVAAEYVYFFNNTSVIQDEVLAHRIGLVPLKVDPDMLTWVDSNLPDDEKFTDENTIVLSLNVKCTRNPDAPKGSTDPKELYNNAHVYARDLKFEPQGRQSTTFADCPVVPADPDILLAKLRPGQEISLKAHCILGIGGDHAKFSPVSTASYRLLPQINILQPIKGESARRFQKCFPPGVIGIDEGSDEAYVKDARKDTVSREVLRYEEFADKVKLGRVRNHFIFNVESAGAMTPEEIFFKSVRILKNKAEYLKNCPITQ
Data set [4] concerns the target S. pombe AC40 (AC40sp), O94616.

“Ty1 integrase (IN) expressed from a functional Ty1 element (from UniProt P0C2I7 583-1217) (enzyme)” registered a fraction of 5FOA^R cells arising from Ty1 integration in data set [1] of 30 fold lower.

B1: S. pombe AC40 (AC40sp) fused to Gal4 binding domain (GBD-AC40sp) (other, UniProt P04386 1-147, looked up)
chain: MKLLSSIEQACDICRLKKLKCSKEKPKCAKCLKNNWECRYSPKTKRSPLTRAHLTEVESRLERLEQLFLLIFPREDLDMILKMDSLQDIKALLTGLFVQDNVNKDAVTDRLASVETDMPLTLRQHRISATSSSEESSNKGQRQLTVSMAAVDRSRTEISVLSDRVTDVGSVDFPGYYFDEDNIWDLDKFKKNLKVSITSLDQETMVFEISGIDASIANAFRRILIAEIPTLAFEFVYIINNTSIIQDEVLSHRIGLVPISADPDMFKWFQHPLPGQEATHTDYDTVVFSLNKKCEFNKNAATDEKDPKRLYVNSEVYSGDLIWKPQGRQEERFADNPIRVVNPDIVVAKLRPGQEIDLEAHAILGIGQDHAKFSPVATASYRLLPTIHILSPIEGEDAVKFQKCFPKGVIELEEGPDGKKQARVADVRKDTVSRECLRHPEFADKVQLGRVRDHYLFSVESTGIMKPDVLFIKSIAVLKSKCLAVKSSLQNISSD
Take B1: in data set [2], the binding result is “no binding”.

B2: Ty1 integrase with S621 modified in A, expressed from a mutant Ty1 element (protein)
chain: T1 sequence with S621A
For the molecule B2, in data set [3], the “PCR detection of Ty1 insertion events upstream of tG(GCC)C” value (shortened to “PCR detection”) was “Ty1 integration upstream of a Pol III genes is severely affected in Ty1 mutants carrying mutations that abolish IN/AC40 interaction” and the “relative frequency of Ty1his3AI retrotransposition” value (shortened to “relative frequency”) is reported as “Ty1 overall mobility decreases no more than two-fold in Ty1 mutants carrying mutations that abolish IN/AC40 interaction”.

B3: Ty1 integrase with L622 modified in A, expressed from a mutant Ty1 element (protein)
chain: T1 sequence with L622A
As to B3, in data set [3], the “PCR detection” value was “Ty1 integration upstream of a Pol III genes is severely affected in Ty1 mutants carrying mutations that abolish IN/AC40 interaction” and the “relative frequency” value was “Ty1 overall mobility decreases no more than two-fold in Ty1 mutants carrying mutations that abolish IN/AC40 interaction”.

B4: Ty1 integrase with K617 modified in A, expressed from a mutant Ty1 element (protein)
chain: T1 sequence with K617A
As for B4, in data set [3], the “PCR detection” value was “The loss of this pattern was also obtained in mutants of Ty1 in which either of the K617 or M619 residues where modified in A (alanine)” and the “relative frequency” value was “Ty1 overall mobility decreases no more than two-fold in Ty1 mutants carrying mutations that abolish IN/AC40 interaction”.

B5: Ty1 integrase with R619 [read as R620] modified in A, expressed from a mutant Ty1his3AI element (protein)
chain: T1 sequence with R620A
For B5, the “relative frequency” value in data set [3] is recorded as “Ty1 overall mobility decreases no more than two-fold in Ty1 mutants carrying mutations that abolish IN/AC40 interaction”.

B6: Ty1 integrase with M619 modified in A, expressed from a mutant Ty1 element (protein)
chain: T1 sequence with M619A
Take B6: in data set [3], the “PCR detection” value was “The loss of this pattern was also obtained in mutants of Ty1 in which either of the K617 or M619 residues where modified in A (alanine)” and the “relative frequency” value is “Ty1 overall mobility decreases no more than two-fold in Ty1 mutants carrying mutations that abolish IN/AC40 interaction”.

B7: Ty1 integrase (IN) expressed from a functional Ty1 element (protein)
chain: T1 sequence
As to B7, in data set [4], the “PCR pattern of Ty1 insertions upstream of tG(GCC)C” value was “In cultures expressing AC40sp, the pattern was dramatically altered, showing both a significant decrease in Ty1 integration and an apparent relaxed periodicity between hotspots”; the “frequency of IN-dependent Ty1HIS3 integration in a rad52Δ mutant” value was “the frequency of IN-dependent integration is 2-fold lower in AC40sp cells compared to AC40 cells”; the “genome-wide Ty1 integration profile” value was “the loss-of-interaction mutant displayed a fundamentally different profile with only a slight bias to integrate near tRNA genes”.
